Consider 5 proteins from article doi:10.1101/2025.07.28.666932, “Mechanism-Guided Engineering of Fluorinase Unlocks Efficient Nucleophilic Biofluorination” (bioRxiv, 2025).

Several values for one entry are separate records, joined by “and”; a condition that tells them apart may be missing. Equal entries are not always repeated.

Series [1] concerns the molecule itself. Nature of the series: mass photometry; free enzyme, 500 nM, 30 mM HEPES buffer, pH 7.5, 20 °C; histograms fitted to the sum of five Gaussian distributions.
Series [2] concerns the molecule itself. The series can be described thus: not stated; oligomeric state under all conditions of the kinetic experiments (Fig. S8); method not given.
Series [3] concerns the molecule itself. Nature of the series: mass photometry; in the presence of substrates, under the reaction conditions; fitted globally with the kinetic data (association constants monomer to trimer K_(a,3E), hexamer K_(a,6E), higher oligomers K_(a,agg)).

B1: fluorinase FlA1 from Streptomyces sp. strain MA37 (5'-fluoro-5'-deoxyadenosine synthase), wild type (enzyme, UniProt W0W999 1-299, looked up)
chain: MAANGSQRPIIAFMSDLGTTDDSVAQCKGLMHSICPGVTVVDVCHSMTPWDVEEGARYIVDLPRFFPEGTVFATTTYPATGTTTRSVAVRIRQAAKGGARGQWAGSGDGFERADGSYIYIAPNNGLLTTVLEEHGYIEAYEVTSTKVIPANPEPTFYSREMVAIPSAHLAAGFPLAEVGRRLDDSEIVRFHRPAVEISGEALSGVVTAIDHPFGNIWTNIHRTDLEKAGIGQGKHLKIILDDVLPFEAPLTPTFADAGAIGNIAFYLNSRGYLSLARNAASLAYPYNLKAGLKVRVEAR
notes: fluorinase FlA1 (5'-fluoro-5'-deoxyadenosine synthase), Streptomyces sp. strain MA37; Exists as trimers, hexamers and higher oligomers; also called wild-type FlA1; wild-type fluorinase; source: overexpressed in Escherichia coli, purified
In the case of B1, in series [1], the “stoichiometry N” value was 3 and 6.

B2: fluorinase FlA1 variant C44T (enzyme, Streptomyces sp. strain MA37, UniProt W0W999 1-299, looked up)
chain: MAANGSQRPIIAFMSDLGTTDDSVAQCKGLMHSICPGVTVVDVTHSMTPWDVEEGARYIVDLPRFFPEGTVFATTTYPATGTTTRSVAVRIRQAAKGGARGQWAGSGDGFERADGSYIYIAPNNGLLTTVLEEHGYIEAYEVTSTKVIPANPEPTFYSREMVAIPSAHLAAGFPLAEVGRRLDDSEIVRFHRPAVEISGEALSGVVTAIDHPFGNIWTNIHRTDLEKAGIGQGKHLKIILDDVLPFEAPLTPTFADAGAIGNIAFYLNSRGYLSLARNAASLAYPYNLKAGLKVRVEAR
notes: fluorinase FlA1, Streptomyces sp. strain MA37, with C44T; everywhere else C44T; also called FlA1+C44T
For B2, the “stoichiometry N” value in series [2] stood at 6.

B3: fluorinase FlA1 variant A279R (enzyme, Streptomyces sp. strain MA37, UniProt W0W999 1-299, looked up)
chain: MAANGSQRPIIAFMSDLGTTDDSVAQCKGLMHSICPGVTVVDVCHSMTPWDVEEGARYIVDLPRFFPEGTVFATTTYPATGTTTRSVAVRIRQAAKGGARGQWAGSGDGFERADGSYIYIAPNNGLLTTVLEEHGYIEAYEVTSTKVIPANPEPTFYSREMVAIPSAHLAAGFPLAEVGRRLDDSEIVRFHRPAVEISGEALSGVVTAIDHPFGNIWTNIHRTDLEKAGIGQGKHLKIILDDVLPFEAPLTPTFADAGAIGNIAFYLNSRGYLSLARNRASLAYPYNLKAGLKVRVEAR
notes: fluorinase FlA1, Streptomyces sp. strain MA37, wild type with A279R
B3: in series [3], the “stoichiometry N” value turned out to be 6.

B4: fluorinase FlA1 variant W50F (enzyme, Streptomyces sp. strain MA37, UniProt W0W999 1-299, looked up)
chain: MAANGSQRPIIAFMSDLGTTDDSVAQCKGLMHSICPGVTVVDVCHSMTPFDVEEGARYIVDLPRFFPEGTVFATTTYPATGTTTRSVAVRIRQAAKGGARGQWAGSGDGFERADGSYIYIAPNNGLLTTVLEEHGYIEAYEVTSTKVIPANPEPTFYSREMVAIPSAHLAAGFPLAEVGRRLDDSEIVRFHRPAVEISGEALSGVVTAIDHPFGNIWTNIHRTDLEKAGIGQGKHLKIILDDVLPFEAPLTPTFADAGAIGNIAFYLNSRGYLSLARNAASLAYPYNLKAGLKVRVEAR
notes: fluorinase FlA1, Streptomyces sp. strain MA37, wild type with W50F
Turning to B4, the binding result in series [3] is “binds”.

B5: fluorinase FlA1 double mutant W50F+A279R (enzyme, Streptomyces sp. strain MA37, UniProt W0W999 1-299, looked up)
chain: MAANGSQRPIIAFMSDLGTTDDSVAQCKGLMHSICPGVTVVDVCHSMTPFDVEEGARYIVDLPRFFPEGTVFATTTYPATGTTTRSVAVRIRQAAKGGARGQWAGSGDGFERADGSYIYIAPNNGLLTTVLEEHGYIEAYEVTSTKVIPANPEPTFYSREMVAIPSAHLAAGFPLAEVGRRLDDSEIVRFHRPAVEISGEALSGVVTAIDHPFGNIWTNIHRTDLEKAGIGQGKHLKIILDDVLPFEAPLTPTFADAGAIGNIAFYLNSRGYLSLARNRASLAYPYNLKAGLKVRVEAR
notes: fluorinase FlA1, Streptomyces sp. strain MA37, wild type with W50F and A279R; also called A279R+W50F; FlA1+A279R+W50F
As for B5, the “stoichiometry N” value in series [3] came to 6.
